In article PMC5639329:
Read-outs that look alike come from different tables or passages of the source.

How the values were obtained:
[1] = AUC
[2] = AUC; remark: listed apart in the source

Substance | % aggregates (20-1000 S area) [1] [%] | % monomer (1-20 S area) [1] [%] | % aggregates (20-1000 S area) [2] [%] | % monomer (1-20 S area) [2] [%] | % aggregates (20-1000 S area), Hsp70 co-expressed [1] [%] | % aggregates (20-1000 S area), average of all runs [1] [%] | % monomer (1-20 S area), Hsp70 co-expressed [1] [%] | % monomer (1-20 S area), average of all runs [1] [%]
GFP-HttQ28 (huntingtin exon 1 fragment with 28 glutamines fused to GFP, expressed in C. elegans) | 70 | 30 | – | – | – | – | – | –
HttQ46-eGFP (huntingtin exon 1 fragment with 46 glutamines fused to eGFP, expressed in D. melanogaster) | 76 | 24 | 79 | 21 | 78 | 83.2 | 22 | 16.8
HttQ72-eGFP (huntingtin exon 1 fragment with 72 glutamines fused to eGFP, expressed in D. melanogaster) | 93 | 7 | 90 | 10 | – | 93.3 | – | 6.7
HttQ25-eGFP (huntingtin exon 1 fragment with 25 glutamines fused to eGFP, expressed in D. melanogaster) | 66 | 34 | 65 | 35 | 62 | 64.7 | 38 | 35.3
GFP-HttQ74 (huntingtin exon 1 fragment with 74 glutamines fused to GFP, expressed in C. elegans) | 97 | 3 | – | – | – | – | – | –
HttQ97-eGFP (huntingtin exon 1 fragment with 97 glutamines fused to eGFP, expressed in D. melanogaster) | 82 | 18 | 86 | 14 | 91 | 85.6 | 9 | 14.7
